{
  "source": "patent US20190225698A1",
  "about": "(published 2019)",
  "key": {"[1]": {"target": "T1, murine CD27-FcHis fusion protein (murine, UniProt P41272 24-182)", "T1 chain": "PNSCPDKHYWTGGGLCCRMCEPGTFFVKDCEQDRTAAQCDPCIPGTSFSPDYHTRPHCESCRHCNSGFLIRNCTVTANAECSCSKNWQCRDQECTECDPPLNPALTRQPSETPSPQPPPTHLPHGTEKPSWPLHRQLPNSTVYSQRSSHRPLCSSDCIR", "assay": "SPR"}, "[2]": {"target": "T2, rhesus monkey CD27-Fc protein (rhesus monkey)", "T2 chain": "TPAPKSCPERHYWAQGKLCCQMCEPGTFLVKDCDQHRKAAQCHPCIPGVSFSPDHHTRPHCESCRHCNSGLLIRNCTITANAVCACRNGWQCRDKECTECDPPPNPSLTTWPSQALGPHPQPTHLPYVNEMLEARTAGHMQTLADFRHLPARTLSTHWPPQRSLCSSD", "assay": "BLI"}, "[3]": {"target": "T3, murine CD27 expressed on the cell surface of transfected HEK293 cells (murine, UniProt P41272 24-250)", "T3 chain": "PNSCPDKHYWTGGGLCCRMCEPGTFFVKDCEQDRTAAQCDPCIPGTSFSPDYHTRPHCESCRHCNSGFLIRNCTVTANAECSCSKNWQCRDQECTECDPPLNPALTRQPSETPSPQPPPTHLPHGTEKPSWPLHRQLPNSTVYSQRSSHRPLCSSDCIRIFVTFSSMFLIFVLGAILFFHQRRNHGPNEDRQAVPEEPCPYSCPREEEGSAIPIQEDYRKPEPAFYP", "assay": "flow cytometry"}, "[4]": {"target": "T4, human CD27 expressed on the cell surface of transfected HEK293 cells (human, UniProt P26842 20-260)", "assay": "flow cytometry"}, "[5]": {"target": "T5, human CD27-HisFc fusion protein (human, UniProt P26842 20-192)", "T5 chain": "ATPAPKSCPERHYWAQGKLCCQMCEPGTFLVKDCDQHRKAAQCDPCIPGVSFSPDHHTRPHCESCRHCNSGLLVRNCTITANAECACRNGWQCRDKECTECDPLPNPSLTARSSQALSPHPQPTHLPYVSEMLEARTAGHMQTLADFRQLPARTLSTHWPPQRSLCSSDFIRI", "assay": "BLI"}, "human CD27-His": {"target": "human CD27-His", "assay": "SPR"}, "[6]": {"target": "T3, murine CD27 expressed on the cell …", "assay": "flow cytometry"}, "[7]": {"target": "T4, human CD27 expressed on the cell …", "assay": "flow cytometry", "remark": "listed apart in the source"}},
  "note": "Like-named read-outs stand apart in the source and are kept apart here.",
  "data": [
    {"binder": "anti-CD27 antibody mAb077 (IgG1 form) (antibody, V domains shown) VH: EVQLVESGGGLVQPGGSLRLSCAASGFTFSGYGIHWVRQAPGKGLEWIGWINPNRGSTKYAQKFQGRVTISRDNSKNTLYLQLNSLRAEDTAVYYCARDPGYTWYFDVWGQGTLVTVSS VL: DIQLTQSPSSLSASVGDRVTITCRASQDISSDLAWYQQKPGKAPKLLIYAASTLQSGVPSRFSGSGSGTDFTLTISSLQPEDFATYYCQQRDAWPPTFGQGTKVEIK", "values": [
      {"measurement": "Kd", "setting": "[1]", "result": 0.0304, "unit": "nM"},
      {"measurement": "Kd", "setting": "[2]", "result": 0.562, "unit": "nM"}
    ]},
    {"binder": "anti-CD27 antibody mAb076 (IgG1 form) (antibody, V domains shown) VH: EVQLVESGGGLVQPGGSLRLSCAASGFTFSDYGIHWVRQAPGKGLEWIGWINPNRGSTNYAQKFQGRVTISRDNSKNTLYLQLNSLRAEDTAVYYCARDYGYTWYFDVWGQGTLVTVSS VL: DIQLTQSPSSLSASVGDRVTITCRASQDISSVLAWYQQKPGKAPKLLIYAASSLQSGVPSRFSGSGSGTDFTLTISSLQPEDFATYYCQQRDAWPLTFGQGTKVEIK", "values": [
      {"measurement": "Kd", "setting": "[1]", "result": 0.0754, "unit": "nM"},
      {"measurement": "Kd", "setting": "[2]", "result": "< 0.001", "unit": "nM"},
      {"measurement": "Kd", "setting": "[3]", "result": 0.3, "unit": "nM"},
      {"measurement": "Kd", "setting": "[4]", "result": 0.16, "unit": "nM"}
    ]},
    {"binder": "mAb076 antibody Fab fragment with C-terminal histidine tag (Fab, V domains shown) VH: EVQLVESGGGLVQPGGSLRLSCAASGFTFSDYGIHWVRQAPGKGLEWIGWINPNRGSTNYAQKFQGRVTISRDNSKNTLYLQLNSLRAEDTAVYYCARDYGYTWYFDVWGQGTLVTVSS VL: DIQLTQSPSSLSASVGDRVTITCRASQDISSVLAWYQQKPGKAPKLLIYAASSLQSGVPSRFSGSGSGTDFTLTISSLQPEDFATYYCQQRDAWPLTFGQGTKVEIK", "values": [
      {"measurement": "Kd", "setting": "[5]", "result": 1.61, "unit": "nM"}
    ]},
    {"binder": "mAb077 antibody Fab fragment with C-terminal histidine tag (Fab, V domains shown) VH: EVQLVESGGGLVQPGGSLRLSCAASGFTFSGYGIHWVRQAPGKGLEWIGWINPNRGSTKYAQKFQGRVTISRDNSKNTLYLQLNSLRAEDTAVYYCARDPGYTWYFDVWGQGTLVTVSS VL: DIQLTQSPSSLSASVGDRVTITCRASQDISSDLAWYQQKPGKAPKLLIYAASTLQSGVPSRFSGSGSGTDFTLTISSLQPEDFATYYCQQRDAWPPTFGQGTKVEIK", "values": [
      {"measurement": "Kd", "setting": "[5]", "result": 4.08, "unit": "nM"}
    ]},
    {"binder": "1F5-IgG (antibody, V domains shown) VH: QVQLVESGGGVVQPGRSLRLSCAASGFTFSSYDMHWVRQAPGKGLEWVAVIWYDGSNKYYADSVKGRFTISRDNSKNTLYLQMNSLRAEDTAVYYCARGSGNWGFFDYWGQGTLVTVSS VL: DIQMTQSPSSLSASVGDRVTITCRASQGISRWLAWYQQKPEKAPKSLIYAASSLQSGVPSRFSGSGSGTDFTLTISSLQPEDFATYYCQQYNTYPRTFGQGTKVEIK", "values": [
      {"measurement": "Kd", "setting": "human CD27-His", "result": 1.39, "unit": "nM"}
    ]},
    {"binder": "mAb077-IgG (antibody, V domains shown) VH: EVQLVESGGGLVQPGGSLRLSCAASGFTFSGYGIHWVRQAPGKGLEWIGWINPNRGSTKYAQKFQGRVTISRDNSKNTLYLQLNSLRAEDTAVYYCARDPGYTWYFDVWGQGTLVTVSS VL: DIQLTQSPSSLSASVGDRVTITCRASQDISSDLAWYQQKPGKAPKLLIYAASTLQSGVPSRFSGSGSGTDFTLTISSLQPEDFATYYCQQRDAWPPTFGQGTKVEIK", "values": [
      {"measurement": "Kd", "setting": "human CD27-His", "result": 0.137, "unit": "nM"}
    ]},
    {"binder": "reference antibody 1F5 (antibody, V domains shown) VH: QVQLVESGGGVVQPGRSLRLSCAASGFTFSSYDMHWVRQAPGKGLEWVAVIWYDGSNKYYADSVKGRFTISRDNSKNTLYLQMNSLRAEDTAVYYCARGSGNWGFFDYWGQGTLVTVSS VL: DIQMTQSPSSLSASVGDRVTITCRASQGISRWLAWYQQKPEKAPKSLIYAASSLQSGVPSRFSGSGSGTDFTLTISSLQPEDFATYYCQQYNTYPRTFGQGTKVEIK", "values": [
      {"measurement": "Kd", "setting": "[2]", "result": 2.13, "unit": "nM"},
      {"measurement": "Kd", "setting": "[6]", "result": 31, "unit": "nM"},
      {"measurement": "Kd", "setting": "[7]", "result": 0.56, "unit": "nM"}
    ]},
    {"binder": "mAb076-IgG (antibody, V domains shown) VH: EVQLVESGGGLVQPGGSLRLSCAASGFTFSDYGIHWVRQAPGKGLEWIGWINPNRGSTNYAQKFQGRVTISRDNSKNTLYLQLNSLRAEDTAVYYCARDYGYTWYFDVWGQGTLVTVSS VL: DIQLTQSPSSLSASVGDRVTITCRASQDISSVLAWYQQKPGKAPKLLIYAASSLQSGVPSRFSGSGSGTDFTLTISSLQPEDFATYYCQQRDAWPLTFGQGTKVEIK", "values": [
      {"measurement": "Kd", "setting": "human CD27-His", "result": 0.332, "unit": "nM"}
    ]}
  ]
}
